Assay results reported in patent US20250064890A1, “PROTEIN COMPOSITIONS FOR THE TREATMENT OF INFLAMMATORY DISEASES” (Unichem Laboratories Limited, priority 2021, published 2025).

Assays:
Assay type in all cases: cell-based, human
IL-6 = test: Multiplex analysis, radiotherapy, TR146
Method: (§1) Oral buccal mucosal cells (TR146) cells were incubated overnight at 37° C. in 5% CO2 incubator. […] The cells were then stimulated with 5-FU (10 mM) for another 24h for chemotherapy and with gamma radiation (3.5 kGy) using Cobalt 60 for radiotherapy. After 24 h, cell culture supernatants were collected from each well and stored at −20° C. till multiplex analysis. For NF-kB estimations, cell lysates were prepared. Levels of biomarkers were estimated using Magpix® multiplex machine. The cells treated with Amifostine (along with 5-FU or radiation) were considered as positive control (PC). Untreated cells (5-FU or radiation alone treated) were used as negative control (NC).
(§2) The percent modulation in each sample was determined as follows:
(§3) [{Concentration of biomarkers (pg/ml) in Control cells (5-FU or radiation alone treated)−Concentration of biomarkers (pg/ml) in SEQ ID NO: 2+5-FU or radiation treated cells)}/Concentration of biomarkers (pg/ml) in Control cells (5-FU or radiation alone treated)]*100

IL-1β = test: Multiplex analysis, radiotherapy, TR146
Method: as §1, §2, §3

CCL-2 = test: Multiplex analysis, radiotherapy, TR146
Method: as §1, §2, §3

TNF-α = test: Multiplex analysis, radiotherapy, TR146
Method: as §1, §2, §3

VEGF = test: Multiplex analysis, radiotherapy, TR146
Method: as §1, §2, §3

RAGE = test: Multiplex analysis, radiotherapy, TR146
Method: as §1, §2, §3

MMP-3 = test: Multiplex analysis, radiotherapy, TR146
Method: as §1, §2, §3

MMP-8 = test: Multiplex analysis, radiotherapy, TR146
Method: as §1, §2, §3

[1] = tested on: oral (buccal) mucosa cells (TR146); test: Annexin positive cell population against 5-FU damage
[2] = tested on: oral (buccal) mucosa cells (TR146); test: Sub(G0/G1) cell population (cell cycle) against 5-FU induced damage; conditions: for % Decrease in Apoptotic cells (with respect to control): Sub G0/G1
Method: (§4) To determine the effect of test item on cell cycle, oral buccal mucosal cells (TR146) were incubated overnight in 5% CO2 incubator at 37° C. for 24 h. […] After 24 h of treatment, cells were exposed to chemotherapy (5-FU 10 mM) for 24 h or radiotherapy (Gamma radiation (3.5 kGy) using Cobalt 60) for 2 h.
(§5) After incubation, cells were harvested by trypsinization and processed for Cell cycle assay. Accordingly, cells were harvested into prelabeled centrifuge tubes and centrifuged at 450 g for 5 min at room temperature (RT, low brake). The supernatants were removed carefully and discarded. 1 ml of 1× phosphate buffer saline (PBS) was added to the pellet and resuspended gently to make homogenous suspension. Cells were centrifuged at 450 g for 5 min, RT (low brake). The supernatant was carefully removed leaving behind approx. 100 μl of PBS. Cells were resuspended gently yet thoroughly in residual PBS. Ice-cold 70% ethanol (100 μl) was added drop-wise into cells in each tube while vortexing at low speed (fixation step). Cells stored at 4° C. for 24 h were centrifuged at 450 g for 5 min, RT (low brake). The supernatant was carefully removed without touching the pellet and discarded. 1 ml of 1×PBS was added into pellet and resuspended gently. Cells were incubated for 1 minute at RT. Cells were centrifuged at 450 g for 5 min, RT (low brake). The supernatant was removed carefully without touching the pellet, leaving behind approx. 20-50 μl of PBS. 200 μl of cell cycle reagent was added into each tube. Cells were resuspended gently and mixed. Cells were incubated for 30 min at RT in the dark. The stained samples were transferred into 96-well plates and acquired on flow cytometer (Guava technologies). Percentage of cells in Sub (G0/G1) phase were determined based on the concept that cell cycle reagent contains PI stain, which stains DNA of cells in different phases of cell cycle; Sub (G0/G1), G1, S, G2 and M. Cells in Sub (G0/G1) phase correspond to apoptotic cells. Percent inhibition in apoptotic cells is determined by the formula:
(§6) =[(% Sub(G0/G1) cells in 5-FU/radiation alone)−(% Sub(G0/G1) cells in TI+5-FU/radiation)/% Sub(G0/G1) cells in 5-FU/radiation alone]*100

[3] = tested on: oral (buccal) mucosa cells (TR146); test: Sub(G0/G1) cell population (cell cycle) against radiation induced damage; conditions: for % Decrease in Apoptotic cells (with respect to control): Sub G0/G1
Method: as §4, §5, §6

[4] = 0.01 μg/ml + Radiation (3.5 kGy)
[5] = 0.1 μg/ml + Radiation (3.5 kGy)

B1: SEQ ID NO 2: recombinant lectin, variant of the S. rolfsii lectin amino acid sequence (reported as Rec-2 in WO 2010/095143) (protein)
chain: TYKITVRVYQTNPDAFFHPVEKTVWKYANGGTWTITDDQHVLTMGGSGTSGTLRFHADNGESFTATFGVHNYKRWCDIVTNLAADETGMVINQQYYSQKNREEARERQLSNYQVKNAKGRNFQIVYTEAEGNDLHANLIIG
- Percentage Inhibition IL-6 (IL-6; [4]): −0.2%
- Percentage Inhibition IL-6 (IL-6; [5]): 3.1%
- Percentage Inhibition IL-6 (IL-6; 1 μg/ml + Radiation (3.5 kGy)): 3.8%
- Percentage Inhibition IL-6 (IL-6; 10 μg/ml + Radiation (3.5 kGy)): 7.7%
- Percentage Inhibition IL-6 (IL-6; 25 μg/ml + Radiation (3.5 kGy)): 5.2%
- Percentage Inhibition IL-1β (IL-1β; [4]): −17.3%
- Percentage Inhibition IL-1β (IL-1β; [5]): −15.1%
- Percentage Inhibition IL-1β (IL-1β; 1 μg/ml + Radiation (3.5 kGy)): −11.5%
- Percentage Inhibition IL-1β (IL-1β; 10 μg/ml + Radiation (3.5 kGy)): −44.8%
- Percentage Inhibition IL-1β (IL-1β; 25 μg/ml + Radiation (3.5 kGy)): −97.1%
- Percentage Inhibition CCL-2 (CCL-2; [4]): 0.1%
- Percentage Inhibition CCL-2 (CCL-2; [5]): 23.1%
- Percentage Inhibition CCL-2 (CCL-2; 1 μg/ml + Radiation (3.5 kGy)): 23.1%
- Percentage Inhibition CCL-2 (CCL-2; 10 μg/ml + Radiation (3.5 kGy)): 23.1%
- Percentage Inhibition CCL-2 (CCL-2; 25 μg/ml + Radiation (3.5 kGy)): 0%
- CCL-2 against radiation induced levels (CCL-2; radiation, in words): downregulation
- Percentage Inhibition TNF-α (TNF-α; [4]): 43.2%
- Percentage Inhibition TNF-α (TNF-α; [5]): 45.2%
- Percentage Inhibition TNF-α (TNF-α; 1 μg/ml + Radiation (3.5 kGy)): 39.6%
- Percentage Inhibition TNF-α (TNF-α; 10 μg/ml + Radiation (3.5 kGy)): 47.1%
- Percentage Inhibition TNF-α (TNF-α; 25 μg/ml + Radiation (3.5 kGy)): 41%
- TNF-α against radiation induced levels (TNF-α; radiation, in words): downregulation
- Percentage Inhibition VGEF (VEGF; [4]): 0.9%
- Percentage Inhibition VGEF (VEGF; [5]): −8.1%
- Percentage Inhibition VGEF (VEGF; 1 μg/ml + Radiation (3.5 kGy)): 8.4%
- Percentage Inhibition VGEF (VEGF; 10 μg/ml + Radiation (3.5 kGy)): 23.3%
- Percentage Inhibition VGEF (VEGF; 25 μg/ml + Radiation (3.5 kGy)): 29.7%
- VEGF against radiation induced levels (VEGF; radiation, in words): downregulation
- Percentage Inhibition RAGE (RAGE; [4]): 38.8%
- Percentage Inhibition RAGE (RAGE; [5]): 42.6%
- Percentage Inhibition RAGE (RAGE; 1 μg/ml + Radiation (3.5 kGy)): 47.6%
- Percentage Inhibition RAGE (RAGE; 10 μg/ml + Radiation (3.5 kGy)): 53.5%
- Percentage Inhibition RAGE (RAGE; 25 μg/ml + Radiation (3.5 kGy)): 39.1%
- RAGE against radiation induced levels (RAGE; radiation, in words): downregulation
- Percentage Inhibition MMP-3 (MMP-3; [4]): 42.8%
- Percentage Inhibition MMP-3 (MMP-3; [5]): 51.9%
- Percentage Inhibition MMP-3 (MMP-3; 1 μg/ml + Radiation (3.5 kGy)): 47.4%
- Percentage Inhibition MMP-3 (MMP-3; 10 μg/ml + Radiation (3.5 kGy)): 47.4%
- Percentage Inhibition MMP-3 (MMP-3; 25 μg/ml + Radiation (3.5 kGy)): 28.8%
- MMP-3 against radiation induced levels (MMP-3; radiation, in words): downregulation
- Percentage Inhibition MMP-8 (MMP-8; [4]): 1.8%
- Percentage Inhibition MMP-8 (MMP-8; [5]): 13.9%
- Percentage Inhibition MMP-8 (MMP-8; 1 μg/ml + Radiation (3.5 kGy)): 11%
- Percentage Inhibition MMP-8 (MMP-8; 10 μg/ml + Radiation (3.5 kGy)): 8.5%
- Percentage Inhibition MMP-8 (MMP-8; 25 μg/ml + Radiation (3.5 kGy)): 7.6%
- MMP-8 against radiation induced levels (MMP-8; radiation, in words): downregulation
- % Apoptotic cells (Annexin +ve) ([1]; 0.01 μg/ml + 5FU (10 mM)): 3%
- % Decrease in Apoptotic cells (with respect to 5-FU) ([1]; 0.01 μg/ml + 5FU (10 mM)): 81.7%
- % Apoptotic cells (Annexin +ve) ([1]; 1 μg/ml + 5FU (10 mM)): 3.1%
- % Decrease in Apoptotic cells (with respect to 5-FU) ([1]; 1 μg/ml + 5FU (10 mM)): 81.1%
- % Apoptotic cells (Annexin +ve) ([1]; 10 μg/ml + 5FU (10 mM)): 8%
- % Decrease in Apoptotic cells (with respect to 5-FU) ([1]; 10 μg/ml + 5FU (10 mM)): 51.5%
- % Apoptotic cells (Annexin +ve) ([1]; 50 μg/ml + 5FU (10 mM)): 19.3%
- % Decrease in Apoptotic cells (with respect to 5-FU) ([1]; 50 μg/ml + 5FU (10 mM)): −17.4%
- % Apoptotic cells (Annexin +ve) ([1]; 100 μg/ml + 5FU (10 mM)): 26%
- % Decrease in Apoptotic cells (with respect to 5-FU) ([1]; 100 μg/ml + 5FU (10 mM)): −58.5%
- % Apoptotic cells (Sub G0/G1) ([2]; 0.1 μg/ml + 5FU (10 mM)): 11.4%
- % Decrease in Apoptotic cells (with respect to control) ([2]; 0.1 μg/ml + 5FU (10 mM)): 63.1%
- % Apoptotic cells (Sub G0/G1) ([2]; 10 μg/ml + 5FU (10 mM)): 6.8%
- % Decrease in Apoptotic cells (with respect to control) ([2]; 10 μg/ml + 5FU (10 mM)): 78%
- % Apoptotic cells (Sub G0/G1) ([2]; 25 μg/ml + 5FU (10 mM)): 14.2%
- % Decrease in Apoptotic cells (with respect to control) ([2]; 25 μg/ml + 5FU (10 mM)): 54.1%
- % Apoptotic cells (Sub G0/G1) ([2]; 50 μg/ml + 5FU (10 mM)): 40.7%
- % Decrease in Apoptotic cells (with respect to control) ([2]; 50 μg/ml + 5FU (10 mM)): −32.0%
- % Apoptotic cells (Sub G0/G1) [3, 4]: 15.2%
- % Decrease in Apoptotic cells (with respect to control) [3, 4]: 56.9%
- % Apoptotic cells (Sub G0/G1) [3, 5]: 14.3%
- % Decrease in Apoptotic cells (with respect to control) [3, 5]: 59.5%
- % Apoptotic cells (Sub G0/G1) ([3]; 1 μg/ml + Radiation (3.5 kGy)): 22.3%
- % Decrease in Apoptotic cells (with respect to control) ([3]; 1 μg/ml + Radiation (3.5 kGy)): 36.9%
- % Apoptotic cells (Sub G0/G1) ([3]; 10 μg/ml + Radiation (3.5 kGy)): 35.7%
- % Decrease in Apoptotic cells (with respect to control) ([3]; 10 μg/ml + Radiation (3.5 kGy)): −1.3%
